In the test the target is T cell receptor of CD8+ T cells from OT1 transgenic mice (ova-specific T cells). As to the kind of experiment: cell-based or functional assay.

Substance “H-2Kb SIINFEKL-DBCO-Thiolinker monomer clicked onto azido-labeled murine erythroid cells (from UniProt P01901 22-305) (peptide-MHC)” came in with an expansion of OT1 cells in vivo after a second aAPC dose (FIG. 6) above 200 fold.

Values taken from US20190290686A1.
